# Test results published in PMC6854500.
# Tests used:
# [1] = molecular target: PEDV CV777 S soluble ectodomain (residues 1 to 1319) with C-terminal T4 fibritin trimerization motif (porcine epidemic diarrhea virus, strain CV777 | bacteriophage T4) (UniProt Q91AV1); assay: cryo-EM structure; PEDV S CV777 at 0.4 mg/ml in 2 mM Tris (pH 8.0), 200 mM NaCl, 0.02% NaN3, 0.01% Amphipol A8-35; Titan Krios 300 kV; 3.3 Å without symmetry, 3.1 Å with C3; a 10-Å reconstruction with 2 mM 3'-sialyllactose was indistinguishable
# [2] = molecular target: PEDV CV777 S soluble ectodomain (residues 1 to 1319) with C-terminal T4 fibritin trimerization motif (porcine epidemic diarrhea virus, strain CV777 | bacteriophage T4) (UniProt Q91AV1); assay: SEC; Superose6 10/300 column, 2 mM Tris (pH 8.0), 200 mM NaCl, 0.02% NaN3; single symmetrical peak
# [3] = molecular target: dissociated PEDV CV777 S1 subunit (S1 ring) (porcine epidemic diarrhea virus, strain CV777) (UniProt Q91AV1); assay: cryo-EM structure; roughly 10% of the particles of the PEDV CV777 S data set, 2D classes and a 9.4-Å reconstruction without imposed symmetry (C1)
Substance,stoichiometry N [1],stoichiometry N [2],stoichiometry N [3]
PEDV CV777 S soluble ectodomain (residues 1 to 1319) with C-terminal T4 fibritin trimerization motif (from UniProt Q91AV1 26-1319) (domain or fragment),3,3,–
dissociated PEDV CV777 S1 subunit (S1 ring) (from UniProt Q91AV1 26-1383) (domain or fragment),–,–,3
